Laboratory results published in publication PMC10115415, “RNA binding induces an allosteric switch in Cyp33 to repress MLL1-mediated transcription” (Science Advances, 2023).

B1: MLL1 third plant homeodomain (PHD3) (domain or fragment, UniProt Q03164 1564-1627, looked up)
chain: AKGNFCPLCDKCYDDDDYESKMMQCGKCDRWVHSKCENLSDEMYEILSNLPESVAYTCVNCTER
notes: mixed-lineage leukemia 1 (MLL1), PHD3 domain, residues 1564 to 1627 (chain B 1564–1627); coordinates two zinc ions; The tag was removed with TEV protease on the chitin column; also called MLL1 PHD3; MLL1-PHD3; source: E. coli BL21-(DE3), codon-optimized construct, IMPACT system, purified (chitin beads, TEV cleavage, Superdex 75)
B2: Histone H3 lysine N6-trimethylated peptide (H3K4me3) (peptide, UniProt P68431 2-14, looked up)
peptide: ARTKQTARKSTGG
modifications: N6-trimethyl-lysine at 4
notes: histone H3 N-terminal tail, residues 1–13 (chain C of the ternary complex), Lys4 trimethylated; The text says that it has four positively charged residues and no negatively charged one; The limits 1–13 are those of chain C of the structure; also called H3K4me3 peptide; histone H3 tail

How the values were obtained:
Conditions in all cases: both partners purified
Cyp33 full-length (FL) = molecular target: T1, Cyp33 full-length (FL) (human, UniProt Q9UNP9 1-301); test: NMR titration; Cyp33 FL:UAAUGU RNA complex mixed with MLL1 PHD3:H3K4me3 complex at 1:1:1:1 stoichiometry (or in large excess of Cyp33:RNA); signals of RNA, of the K4me3 methyl groups and of PHD3 residues followed
T1 construct: cyclophilin 33 (Cyp33), 33 kDa, N-terminal RRM and C-terminal cyclophilin domain; details may stand in the Supplementary Materials and Methods; also called Cyp33 FL; cyclophilin 33

[1] = molecular target: Cyp33 RRM/MLL1 PHD3 complex (human | , UniProt Q9UNP9 1-114; Q03164 1564-1627); test: ITC; conditions not given (table S1, fig. S2)
[2] = molecular target: B1; test: ITC; conditions not given (table S1, fig. S2)

T1 sequence (Q9UNP9 whole entry, the tested form may be a part): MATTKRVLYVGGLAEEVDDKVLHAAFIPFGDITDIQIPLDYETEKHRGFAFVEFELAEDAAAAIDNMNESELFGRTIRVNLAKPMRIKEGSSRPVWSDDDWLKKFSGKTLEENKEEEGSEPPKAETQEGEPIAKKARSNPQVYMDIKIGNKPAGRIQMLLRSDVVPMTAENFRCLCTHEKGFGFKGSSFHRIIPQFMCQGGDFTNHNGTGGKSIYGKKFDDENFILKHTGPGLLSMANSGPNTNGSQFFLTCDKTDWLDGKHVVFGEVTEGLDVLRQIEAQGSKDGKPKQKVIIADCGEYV
Sequence of Cyp33 RRM/MLL1 PHD3 complex (Q9UNP9 other isoform, or with tags, fused parts or gaps): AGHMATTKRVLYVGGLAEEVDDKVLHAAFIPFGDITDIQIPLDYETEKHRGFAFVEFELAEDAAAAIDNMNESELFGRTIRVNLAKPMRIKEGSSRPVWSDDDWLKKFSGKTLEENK

Row | Binder | binding result (Cyp33 full-length (FL)) | Kd [1] | Kd [2]
1 | B1 | binds | – | –
2 | B2 | – | 70 µM | 51 µM
